Data on 98 substances can be found in the supplement of paper PMC12042874.

± gives the uncertainty stated by the source.

A short description of the data set: amyloid nucleation score (Sup35N fusion, yeast selection) (log enrichment); library NNK3; higher = more nucleation; inactive = no reads after selection. An outline of the steps: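 DiMSum was used to calculate nucleation scores as log enrichment of output over input reads, centred on the mode score of non-aggregating sequences. Sequences with fewer than 100 input reads were not scored. Input and output came from Illumina sequencing of plasmid inserts in psi-negative yeast expressing peptides of 20 random codons fused to Sup35N, induced 24 hours with 100 μM copper sulfate and then grown 7 days at 30°C on medium lacking adenine and uracil.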
Consider VSNLGCCKALSCGMSYRVCW, for which the amyloid nucleation score entry is “inactive”.

On to VSPRRGHNVYLIVAARWCVA, for which the amyloid nucleation score entry was “inactive”.

For the substance VSRVSLKRRYALM, the amyloid nucleation score was -1.13 ± 2.5.

As for VSTRFFSACTLHFQSSMPYC, the amyloid nucleation score entry is “inactive”.

Substance VSYLVCIDWVCPSGQWNAFW gave an amyloid nucleation score of 1.52 ± 0.11.

VSYRCSTICTNLVITVCLCD yielded an amyloid nucleation score of 0.25 ± 0.34.

For VSYTYAGYSIRYIVFSS, the amyloid nucleation score result was “inactive”.

With VTELDEWSGIVVEGYNACSS, the amyloid nucleation score entry is “inactive”.

Substance VTHCSVFHLGNTWLVQLWWY had an amyloid nucleation score of -0.513 ± 1.3.

On to VTNQSFDQPESLVEM, for which the amyloid nucleation score entry was “inactive”.

Turning to VTSNSDRT, the amyloid nucleation score entry is “inactive”.

Regarding VTVQLCSNLIMGTWRTRNVL, the amyloid nucleation score result was “inactive”.

As to VTVRKFMVSLWSGGPTWDGR, the amyloid nucleation score result was “inactive”.

VVATILLVHPPVKHWSCDLM registered an amyloid nucleation score of -0.859 ± 0.73.

For the substance VVCDNYG, the amyloid nucleation score came out at 0.607 ± 0.23.

As to VVCLLALKIYDMLCRCQDVV, the amyloid nucleation score result was “inactive”.

Regarding VVFWNFTRMLCLG, the amyloid nucleation score result was “inactive”.

The substance VVGQKTIVGTLIHFSFKVLA had an amyloid nucleation score of 1.26 ± 0.14.

As to VVHSGWKSLDNLPHLRDVVT, the amyloid nucleation score result was “inactive”.

As to VVILWGR, the amyloid nucleation score entry is “inactive”.

With VVIVLLKFR, the amyloid nucleation score entry is “inactive”.

Consider VVLQDPGSLYEPRSHGTWFT, for which the amyloid nucleation score entry is “inactive”.

On to VVLVFLRVTRYPSQKMVSAL, for which the amyloid nucleation score entry is “inactive”.

In the case of VVMVLRVLLWWFRTSIMSRK, the amyloid nucleation score is 0.467 ± 0.19.

For VVMWAPLRYDFKSKDRAVES, the amyloid nucleation score entry is “inactive”.

With VVPIVWHTGSSRVYTEGVLM, the amyloid nucleation score was -0.65 ± 1.3.

VVRYHSMYKDCYFLKRFVIL: the amyloid nucleation score entry was “inactive”.

VVRYPSMKE: the amyloid nucleation score result is “inactive”.

For VVVLYFVSHWTNRMSYSTRL, the amyloid nucleation score result is “inactive”.

On to VWCPRDFFVSFVPCQ, for which the amyloid nucleation score entry is “inactive”.

On to VWIWWEDSGITCLGYMVLDF, for which the amyloid nucleation score result was “inactive”.

Turning to VWLRGFQLGMDDFLWRVSGC, the amyloid nucleation score result is “inactive”.

VWNFFSMGSFSVDC: the amyloid nucleation score worked out at 1.28 ± 0.087.

Regarding VWNMSASIKLQRMSAF, the amyloid nucleation score result is “inactive”.

As for VWQRAKSSTIGPLIW, the amyloid nucleation score result is “inactive”.

Consider VWSTGRLLRGKSWELISNDT, for which the amyloid nucleation score entry was “inactive”.

Regarding VWTGWSKRGSSVA, the amyloid nucleation score entry is “inactive”.

As to VYAKVMSCGYGQRCVMEWFE, the amyloid nucleation score entry was “inactive”.

In the case of VYCLFVTCLKGINQWMHDKS, the amyloid nucleation score entry was “inactive”.

On to VYDNNYINFRSLLYMTKVSN, for which the amyloid nucleation score entry is “inactive”.

VYFRVFCFVSLCGVY: the amyloid nucleation score is -0.548 ± 0.9.

Take VYFSDVV: the amyloid nucleation score result was “inactive”.

On to VYHLQLLVGVRGLNPRCAQE, for which the amyloid nucleation score result is “inactive”.

For the substance VYINVNDVALKHRFLKPV, the amyloid nucleation score entry is “inactive”.

As to VYIVSDTRMATASFG, the amyloid nucleation score was -0.773 ± 1.3.

On to VYKWSNVLM, for which the amyloid nucleation score entry is “inactive”.

Regarding VYMNGIKVKDGLSTYWVPRE, the amyloid nucleation score was -0.161 ± 0.69.

As for VYNIDTRNISFMSASNRTLS, the amyloid nucleation score result was “inactive”.

Turning to VYPCKIFCVFVVAVILFFSL, the amyloid nucleation score entry was “inactive”.

In the case of VYQQSWQVLDFVRWDTERME, the amyloid nucleation score entry was “inactive”.

Regarding VYRERPMSKEGRCIEWHNLA, the amyloid nucleation score result is “inactive”.

As for VYTGHVGLFV, the amyloid nucleation score entry was “inactive”.

In the case of VYVWSG, the amyloid nucleation score result was “inactive”.

As for VYWFRYRSIGTAAS, the amyloid nucleation score entry was “inactive”.

With VYWRTVFNLRLVLKSYGAMR, the amyloid nucleation score entry was “inactive”.

As for VYYYKMTGKVYMSLYMGKLL, the amyloid nucleation score result was “inactive”.

With WACCGICSCL, the amyloid nucleation score turned out to be 2.02 ± 0.094.

On to WACIQK, for which the amyloid nucleation score result was “inactive”.

WALWICC displayed an amyloid nucleation score of 0.83 ± 0.13.

In the case of WANNSCAIRGNNSPMGGSVA, the amyloid nucleation score result was “inactive”.

With WARIYKMLIF, the amyloid nucleation score entry is “inactive”.

For WCAVMPFRSVTSNVIFDLSV, the amyloid nucleation score result was “inactive”.

Take WCFHVKTSSLVLSRQWEPLS: the amyloid nucleation score entry is “inactive”.

Regarding WCSGLPGLNRWSSTIPICCY, the amyloid nucleation score entry was “inactive”.

As to WCTAAM, the amyloid nucleation score entry is “inactive”.

With WCYDDGQA, the amyloid nucleation score entry was “inactive”.

As for WDFRV, the amyloid nucleation score entry was “inactive”.

As for WDGLHVCLKSIIGGNSGLEK, the amyloid nucleation score result was “inactive”.

Regarding WDRSMMIAIDD, the amyloid nucleation score entry was “inactive”.

For WEELDYNSDPLLAGSVTDYM, the amyloid nucleation score result is “inactive”.

In the case of WEGMNNKIRAYAYIATLVYT, the amyloid nucleation score entry was “inactive”.

With WELSRYVRGLLFEFTLCLFV, the amyloid nucleation score result is “inactive”.

Turning to WETLLKPWQA, the amyloid nucleation score result is “inactive”.

Consider WFASNPIMLPSFYLIPWKRT, for which the amyloid nucleation score entry was “inactive”.

On to WFDFHA, for which the amyloid nucleation score worked out at 0.9 ± 0.25.

With WFDNRGLSFPYVYLLREHGK, the amyloid nucleation score amounted to 1.13 ± 0.11.

In turn, WFLVVVTFGWSIGQGQVGA displayed an amyloid nucleation score of -0.527 ± 1.1.

For the substance WFSPRDVNYSREVFKANTLT, the amyloid nucleation score result is “inactive”.

As for WGEPIVLDLSSFFDLVDRHG, the amyloid nucleation score result was “inactive”.

Take WGFRRT: the amyloid nucleation score entry was “inactive”.

For the substance WGQCNELTMFFRFFLTFYIA, the amyloid nucleation score result is “inactive”.

As for WGQMR, the amyloid nucleation score worked out at 0.456 ± 0.37.

As to WGTFIKSFQRLVKMVLLSMP, the amyloid nucleation score entry is “inactive”.

Take WGTRLWIVVQIGQEYVLLVR: the amyloid nucleation score is -0.234 ± 1.1.

In the case of WHAFRLMWDSNMLLLRGSVV, the amyloid nucleation score result was “inactive”.

Consider WHTSSQVSEGLEHAYVCKFE, for which the amyloid nucleation score entry is “inactive”.

Take WILLCIRRRMFCRGMCTINN: the amyloid nucleation score entry was “inactive”.

On to WINNIAPPYGQ, for which the amyloid nucleation score entry is “inactive”.

Turning to WIRSNATFNATGVKFSSTCH, the amyloid nucleation score result was “inactive”.

As for WIWLGCPSVMSEEYMSDFHI, the amyloid nucleation score result is “inactive”.

For WKFWVAC, the amyloid nucleation score result was “inactive”.

Turning to WKYDKGNFRALVW, the amyloid nucleation score result is “inactive”.

WLEDTSSTDF gave an amyloid nucleation score of 0.348 ± 0.22.

Regarding WLGMCPLLTVVLTGIFLTPF, the amyloid nucleation score was 0.487 ± 0.2.

Regarding WLHTCRGSMDW, the amyloid nucleation score result is “inactive”.

For the substance WLKAEGWIIILSSATRPG, the amyloid nucleation score result is “inactive”.

Regarding WLLHLIYD, the amyloid nucleation score entry was “inactive”.

In the case of WLMRARGYGNVRSPVVFGKL, the amyloid nucleation score result was “inactive”.
